Assay results reported in IntAct's records for PubMed 20618438.

B1: Hereditary hemochromatosis protein (Homo sapiens), Q30201 (parent)
chain: MGPRARPALLLLMLLQTAVLQGRLLRSHSLHYLFMGASEQDLGLSLFEALGYVDDQLFVFYDHESRRVEPRTPWVSSRISSQMWLQLSQSLKGWDHMFTVDFWTIMENHNHSKESHTLQVILGCEMQEDNSTEGYWKYGYDGQDHLEFCPDTLDWRAAEPRAWPTKLEWERHKIRARQNRAYLERDCPAQLQQLLELGRGVLDQQVPPLVKVTHHVTSSVTTLRCRALNYYPQNITMKWLKDKQPMDAKEFEPKDVLPNGDGTYQGWITLAVPPGEEQRYTCQVEHPGLDQPLIVIWEPSPSGTLVIGVISGIAVFVVILFIGILFIILRKRQGSRGAMGHYVLAERE

Legend:
[1] = variants of: B1; conditions: with tfr1_human TFRC
[2] = variants of: B1; conditions: with trfe_human TF
[3] = variants of: B1; conditions: with trfe_human TF; remark: listed apart in the source
[4] = variants of: B1; conditions: with b2mg_human B2M
[5] = variants of: B1; conditions: with trfe_human TF; remark: listed apart in the source
[6] = variants of: B1; conditions: with trfe_human TF; remark: listed apart in the source
[7] = variants of: B1; conditions: with b2mg_human B2M; remark: listed apart in the source

effect of a mutation on the interaction [1] | effect of a mutation on the interaction [2] | effect of a mutation on the interaction [3] | effect of a mutation on the interaction [4] | effect of a mutation on the interaction [5] | effect of a mutation on the interaction [6] | effect of a mutation on the interaction [7] | Variant
disrupting interaction | disrupting interaction | decreasing interaction | disrupting interaction |  |  |  | N110A
 |  |  | disrupting interaction | decreasing interaction |  |  | N234A
 |  |  |  |  | disrupting interaction | disrupting interaction | C282Y
disrupting interaction | disrupting interaction | decreasing interaction | disrupting interaction |  |  |  | N130A
